Laboratory results as given in the supplement of paper PMC7125110.
± gives the standard error. This sample holds only a part of the variants without activity.

B1: glmS ribozyme (parent)
chain: AUAAAAGCGCCAGAACUACAGAAAUGUAGUUGACGAGGAGGAGGUUUAUCGAAUUUUCGGCGGAUGCCUCCAAA

Tests used:
Conditions in all cases: with glucosamine-6-phosphate
glucosamine-6-phosphate [1] = variants of: B1; experiment: self-cleavage kobs at 640 uM GlcN6P; higher = faster cleavage; RNA array
Procedure, shortened: (§1)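 On sequenced MiSeq chips, barcoded ribozyme variants were made in situ by E. coli RNA polymerase and followed at 37 °C through a hybridised Cy3 probe. Glucosamine-6-phosphate was flowed in at 40 μM to 10 mM in HEPES/KCl/Mg(OAc)2 buffer. Exponential fits to normalised per-tile medians gave kobs, and weighted Michaelis–Menten fits gave kcat and KM.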

glucosamine-6-phosphate [2] = variants of: B1; experiment: self-cleavage kobs at 2500 uM GlcN6P; higher = faster cleavage; RNA array
Procedure, shortened: as §1

glucosamine-6-phosphate [3] = variants of: B1; experiment: self-cleavage kobs at 10000 uM GlcN6P; higher = faster cleavage; RNA array
Procedure, shortened: as §1

Variant | self-cleavage kobs at 640 uM GlcN6P (glucosamine-6-phosphate [1]) | self-cleavage kobs at 2500 uM GlcN6P (glucosamine-6-phosphate [2]) | self-cleavage kobs at 10000 uM GlcN6P (glucosamine-6-phosphate [3])
A53U C58G C68U | 9.02e-05 ± 3.1e-05 s⁻¹ |  | 
G40C U65G | 9.16e-05 ± 3.6e-05 s⁻¹ | 0.00036 ± 0.00012 s⁻¹ | 0.000854 ± 0.00025 s⁻¹
G43A G51U U65A G66U | < 1e-05 s⁻¹ | < 1e-05 s⁻¹ | 
A39G C58G G60C | < 1e-05 s⁻¹ | < 1e-05 s⁻¹ | < 1e-05 s⁻¹
U47G U49A A52U | < 1e-05 s⁻¹ |  | 
U46C C67U | 0.000202 ± 5.2e-05 s⁻¹ | 0.000469 ± 0.00013 s⁻¹ | 0.000426 ± 8.9e-05 s⁻¹
U46A C50G C58G | < 1e-05 s⁻¹ |  | 
A52C G59A U69G | < 1e-05 s⁻¹ |  | 
A39U U56A A72U | 0.000916 ± 0.00022 s⁻¹ | 0.00356 ± 0.00049 s⁻¹ | 
U55A U57G | 2.18e-05 ± 1e-05 s⁻¹ | 2.56e-05 ± 7.4e-06 s⁻¹ | 7.86e-05 ± 1.2e-05 s⁻¹
C50G A53U A64G | < 1e-05 s⁻¹ |  | 
G37U A39C A64G U69G | < 1e-05 s⁻¹ |  | 
G60U G63U C70A | < 1e-05 s⁻¹ |  | 
C50A C67U C70G | 6.04e-05 ± 2.3e-05 s⁻¹ |  | 
U49C U54A G63U | < 1e-05 s⁻¹ | < 1e-05 s⁻¹ | 
A52C G62A G63C | < 1e-05 s⁻¹ |  | 
G37A A64G C71U | 3.85e-05 ± 1.7e-05 s⁻¹ |  | 
G51U A53U U54A | < 1e-05 s⁻¹ |  | < 1e-05 s⁻¹
U46C G51C C70U | < 1e-05 s⁻¹ | < 1e-05 s⁻¹ | 
U49C A52G U65C | < 1e-05 s⁻¹ |  | 
U54A G66A C71U | 0.00501 ± 0.00099 s⁻¹ |  | 
U57G C67A U69G | 4.87e-05 ± 2.3e-05 s⁻¹ |  | 

Variant | self-cleavage kobs at 640 uM GlcN6P (glucosamine-6-phosphate [1]) | self-cleavage kobs at 2500 uM GlcN6P (glucosamine-6-phosphate [2]) | self-cleavage kobs at 10000 uM GlcN6P (glucosamine-6-phosphate [3])
A42G C58A A64U | < 1e-05 s⁻¹ | < 1e-05 s⁻¹ | 
G51A G66A U69A | 0.000177 ± 7.9e-05 s⁻¹ |  | 
G38C G43A A64G | < 1e-05 s⁻¹ |  | 
C68A U69G | 9.62e-05 ± 3.5e-05 s⁻¹ |  | 
C50G C61U G66U | 7.98e-05 ± 2.8e-05 s⁻¹ | 0.00022 ± 8e-05 s⁻¹ | 
U54A A64G C68G | 5.8e-05 ± 2.1e-05 s⁻¹ | 0.000109 ± 3.5e-05 s⁻¹ | 
U49G C50U G66U C70U | 8.76e-05 ± 3.9e-05 s⁻¹ |  | 
U56G U57G G66U | < 1e-05 s⁻¹ | < 1e-05 s⁻¹ | 
A48G A52U G59U | < 1e-05 s⁻¹ | < 1e-05 s⁻¹ | 
G41C A64C C67A | < 1e-05 s⁻¹ |  | 
G43A U46G C70G | < 1e-05 s⁻¹ | < 1e-05 s⁻¹ | 
G59C A64G U69G | < 1e-05 s⁻¹ |  | 
C58U C67U U69A | 6.03e-05 ± 2.7e-05 s⁻¹ | 0.000214 ± 9e-05 s⁻¹ | 
A42U G44C | < 1e-05 s⁻¹ | < 1e-05 s⁻¹ | < 1e-05 s⁻¹
U56C U57C | 7.5e-05 ± 2.2e-05 s⁻¹ | 8.12e-05 ± 1.7e-05 s⁻¹ | 
G43C U46A A48C | < 1e-05 s⁻¹ | < 1e-05 s⁻¹ | < 1e-05 s⁻¹
G44C C70A | < 1e-05 s⁻¹ | < 1e-05 s⁻¹ | < 1e-05 s⁻¹
G40C G41U G43U | < 1e-05 s⁻¹ | < 1e-05 s⁻¹ | 
G37U G41C G60U | < 1e-05 s⁻¹ |  | 
G44U A48U C67U | 0.000119 ± 4.8e-05 s⁻¹ | 0.000418 ± 0.00012 s⁻¹ | 
U45G U69C | 0.0407 ± 0.018 s⁻¹ |  | 
A48U C50G C70U | 9.42e-05 ± 2.9e-05 s⁻¹ |  | 

Variant | self-cleavage kobs at 640 uM GlcN6P (glucosamine-6-phosphate [1]) | self-cleavage kobs at 2500 uM GlcN6P (glucosamine-6-phosphate [2]) | self-cleavage kobs at 10000 uM GlcN6P (glucosamine-6-phosphate [3])
G37A G43U G62U G66C C67A | < 1e-05 s⁻¹ | < 1e-05 s⁻¹ | < 1e-05 s⁻¹
U55C C58A C70U | 4.34e-05 ± 1.9e-05 s⁻¹ | 5.54e-05 ± 1.5e-05 s⁻¹ | 
G51U C67U U69C | 5.75e-05 ± 2.5e-05 s⁻¹ |  | 
G60A C61G C67G | < 1e-05 s⁻¹ |  | 
U57A C71U | 5.18e-05 ± 2.1e-05 s⁻¹ | 0.000132 ± 3.1e-05 s⁻¹ | 0.000407 ± 0.00015 s⁻¹
C58U U69A | 6.22e-05 ± 2.6e-05 s⁻¹ |  | 
G40U C50G | < 1e-05 s⁻¹ | < 1e-05 s⁻¹ | < 1e-05 s⁻¹
A52U A53C C71G | < 1e-05 s⁻¹ | < 1e-05 s⁻¹ | 
A42C A48U C68G | < 1e-05 s⁻¹ |  | 
A42C G44U | < 1e-05 s⁻¹ |  | < 1e-05 s⁻¹
G41U G59U G63U | < 1e-05 s⁻¹ |  | 
U46G U57C | < 1e-05 s⁻¹ |  | 
U65A G66A C71U | 0.000198 ± 4.2e-05 s⁻¹ | 0.000397 ± 0.0001 s⁻¹ | 
G44C C68A U69G | < 1e-05 s⁻¹ |  | 
U45G U54C C61U | < 1e-05 s⁻¹ | < 1e-05 s⁻¹ | 
G43A A48U C50A | < 1e-05 s⁻¹ | < 1e-05 s⁻¹ | 
A39G U45A U57C | 0.000107 ± 2.6e-05 s⁻¹ | 0.000294 ± 7.7e-05 s⁻¹ | 
G41A U55C | 1.88e-05 ± 8.5e-06 s⁻¹ | 0.000105 ± 1.9e-05 s⁻¹ | 
G41C C50U G59U | < 1e-05 s⁻¹ |  | 
G38A A52G C68G | 7.2e-05 ± 2.5e-05 s⁻¹ |  | 
